# Source: US10654917B2, “Antibody molecules and peptide delivery systems for use in alzheimer's disease and related disorders” (TECHNOPHAGE, INVESTIGAÇĀO E DESENVOLVIMENTO EM …, priority 2015, dated 2020)
# How the values were obtained:
# [1] = Features of peptides: isoelectric point, charge; type: physicochemical; details: original peptide
# Source text: Table 7 lists each peptide's name, isoelectric point (PI), charge (number of positive residues), calculated mass (in Da), and ion found; as well as the name, calculated mass, and found ion for the corresponding conjugate; and also retention times in HPLC and the partition coefficient (log Po/w). These values allowed the determination of the hydrophilic nature of peptides, where pepH1 and pepH4 were identified as the most hydrophilic peptides.
# [2] = tested on: in vitro model of the BBB (bEnd3 cells); test: Transmigration of radiolabelled peptides across in vitro BBB model; type: in vitro ADME
# Procedure: Using the same in vitro model of the BBB described above, peptides labelled with technetium and gallium were tested for the ability to cross endothelial barrier. For each peptide, bEnd3 cells cultured on “tissue culture inserts” were incubated with 5 ρCimL^−1-labelled peptide for different incubation times: 15 min, 5 h and 24 h. As a control, the model without cells was used (Control no cells) or (Filters) and compared to models with cells (BBB) or (Cells).
# FIGS. 21A-21F show the percent activity of the radioisotope technetium-labelled peptides at the apex and base after 5 hours of incubation with the in vitro model described above, using the BBB-model or no cells (as a control); and values were obtained from two independent assays. […] Moreover, the results indicated promising candidates. Specifically, for each of pepH1 and pepH3, there was an overpass of 50% in the control, compared with only 20% in the presence of a cell barrier. The translocation of pepH2 was not observed in either the control nor in the BBB model.
# Results for the incubations of 15 minutes, 5 hours, and 24 hours are shown together in FIGS. 22A-22F. That is, FIGS. 22A-22F show the percent activity of the radioisotope technetium-labelled peptides at the apex and base after 15 minutes, 5 hours, and 24 hours of incubation with the in vitro model described above, using the BBB-model or no cells (as a control); and values were obtained from two independent assays. Differences again were observed, confirming the integrity of the barrier, as well as identifying peptides that crossed the barrier. […] PepR′ thus was excluded from further tests.
# (§1) Table 9 summarizes results regarding uptake (internalization) and cellular interaction, as well as transmigration across an in vitro model for BBB, for peptides labelled with technetium and gallium, after 15 minutes, 5 hours, and 24-hours of incubation, based on percent recovery of radiopeptide. The Table lists the peptides, providing each peptide's name, % BBB transmigration, % cellular interaction, and % internalized, each after […], 5 hours, and 24 hours of incubation.
# [3] = tested on: bEnd3 cells; test: Uptake test: cellular interaction (acid wash) and internalization (lysate); type: cell-based
# Procedure: In addition to testing models of BBB, an uptake test was performed to determine the internalizing ability of the candidate peptides. BEnd3 cells were cultured in 24 well plates. At each time point, the medium containing the peptide, which had not interacted with the cells, was collected. In the next step, the cells were washed with an acidic buffer that releases peptides more strongly bound to the cell membrane (sample acid wash). Finally, the cells were lysed to release internalized peptides and to quantify the activity inside the cells. Results are showing in FIGS. 23A-23E.
# FIGS. 23A-23E show percent activity of the radioisotope technetium-labelled peptides in the media, wash buffer (acid wash) and lysate, after 15 minutes, 5 hours, and 24 hours of incubation with bEnd3 cells; and values were obtained from two independent assays. […] PepM′, as well as showing high transmigration (about 50%), also appeared to become internalized and accumulated within the cells (about 13% of radioactivity in the lysate).
# as §1
# [4] = tested on: bEnd3 cells; test: MTT cell viability assay; type: cell-based
# Procedure: To test possible toxicity of selected peptides to BBB cells, 5×10^4 bEnd3 cells were cultured in 96-well plates, at 100 μL/well, and incubated for 24 hours. The peptides then were added at concentrations of 0.1-100 μM, with the exception of pepM′ (which was added at concentrations of 0.1-50 μM). As a control providing 100% of viability, a well with serum-free media was included.
# After 24 hours of incubation, a MTT assay was performed, which is a colorimetric assay for assessing cell metabolic activity. A MTT solution at 5 mg/mL in PBS was added to each well and incubated for 2 hours. After this period, the solution was removed and DMSO added to solubilize violet crystals formed. Absorbance was measured at 540 nm. The viability percentage [Absorbancepeptide-treated cells/Absorbanceuntreated-cells)*100] was calculated and IC50 values were calculated from three independent assays.
# As FIGS. 24A-24E show, the selected peptides have no effect on cell viability, specifically, there was no observable nor measurable effect using the assay described.
# [5] = Biodistribution of technetium-labelled peptides; type: in vivo, CD1 mice
# Procedure: To evaluate the capacity to cross the BBB in vivo, the selected peptides, pepH1 and pepH3, were analyzed for biodistribution in CD1 mice. The peptides were labelled with technetium at a final concentration of 8.5×10^−5 M and diluted in PBS. CD1 mice were injected (iv injection, tail vein). The mice were sacrificed by cervical dislocation after 5 and 60 minutes of incubation. The tissues of interest were dissected and washed to remove excess blood, weighed, and measured for radioactivity. Technetium radioactivity of the different peptides was measured for different organs.
# Initial results are presented in Table 11, where “% I.A. refers to the “% injected activity”, that is, the amount of radioactivity measured in a given organ compared to the total originally injected.
# The biodistribution studies were repeated, using higher doses of each peptide, specifically, a one hundred fold increase, as well as using PepH2 as a negative control, and allowing incubation for 2 minutes and 60 minutes. Tissue biodistribution profile in percentage of injected radiopeptide activity per gram of tissue/organ was measured and results are presented in Table 12.
sequence,measurement,setting,value
KLFMALVAFLRFLT [PepH2],Charge (number of positive residues),[1],2
same,PI (isoelectric point),[1],11
same,BBB transmigration,"[2]; 99mTc, 0.25 hours",0.79 ± 0.7%
same,BBB transmigration,"[2]; 99mTc, 5 hours",5.21 ± 3.3%
same,BBB transmigration,"[2]; 99mTc, 5 hours, listed as pepH2",not observed
same,BBB transmigration,"[2]; 99mTc, 24 hours",9.32 ± 2.5%
same,BBB transmigration,"[2]; 99mTc, 24 hours, listed as pepH2",9%
same,BBB transmigration,"[2]; GaCl3, 0.25 hours",0.33 ± 0.1%
same,BBB transmigration,"[2]; GaCl3, 5 hours",4.06 ± 0.3%
same,BBB transmigration,"[2]; GaCl3, 24 hours",13.51 ± 0.7%
same,Cellular interaction,"[3]; 99mTc, 0.25 hours",1.60 ± 0.3%
same,Internalization,"[3]; 99mTc, 0.25 hours",2.15 ± 1.2%
same,Cellular interaction,"[3]; 99mTc, 5 hours",5.95 ± 3.0%
same,Internalization,"[3]; 99mTc, 5 hours",24.8 ± 2.0%
same,Cellular interaction,"[3]; 99mTc, 24 hours",2.20 ± 0.4%
same,Cellular interaction,"[3]; GaCl3, 0.25 hours",0.77 ± 0.1%
same,Internalization,"[3]; GaCl3, 0.25 hours",0.84 ± 0.1%
same,Cellular interaction,"[3]; GaCl3, 5 hours",1.48 ± 0.1%
same,Internalization,"[3]; GaCl3, 5 hours",6.97 ± 0.3%
same,Cellular interaction,"[3]; GaCl3, 24 hours",1.16 ± 0.1%
same,Internalization,"[3]; GaCl3, 24 hours",9.24 ± 1.2%
same,effect on cell viability,"[4]; 0.1-100 μM (pepM′ 0.1-50 μM), 24 hours",small decrease in viability
same,cell death,"[4]; concentration below 40 μM, peptide in DMSO",no cell death
same,radioactivity levels in the brain,"[5]; 80 μg, after 60 minutes",0.2%
same,radioactivity in the brain,"[5]; 140 μg (pepH1, pepH3) or 80 μg (pepH2), 2 min",0.37%
same,excreted,"[5]; 140 μg (pepH1, pepH3) or 80 μg (pepH2), after 60 min",12.7%
same,brain uptake,[5]; after 2 min,rapid brain uptake
same,brain washout,"[5]; mouse, in vivo",brain washout was slower
